According to US20030036642, “Platelet derived growth factor (PDGF) nucleic acid ligand complexes” (published 2003):

B1: 1269 (ssDNA)
DNA: CACAGGCUACGGCACGTAGAGCATCACCATGATCCUGUG
modifications: 2'-F U8,C34; 2'-OMe C10,G11,G12,C13,A14,C25,A26,C27,C28,A29,U36,G37,U38,G39; 3'-3' inverted T at nt 40
B2: 1265 (ssDNA)
DNA: CACAGGCTACGGCACGTAGAGCATCACCATGATCCUGUG
modifications: 2'-OMe C10,G11,G12,C13,A14,C25,A26,C27,C28,A29,U36,G37,U38,G39; 2'-F C34; 3'-3' inverted T at nt 40
B3: 1257 (ssDNA)
DNA: CACAGGCTACGGCACGTAGAGCATCACCATGATCCTGUG
modifications: 2'-OMe C10,G11,G12,C13,A14,A26,C27,C28,A29,G37,U38,G39; 2'-F C34; 3'-3' inverted T at nt 40
B4: 1267 (ssDNA)
DNA: CACAGGCTACGGCACGTAGAGCATCACCATGATCCUGUG
modifications: 2'-OMe C10,G11,G12,C13,A14,C25,A26,C27,C28,A29,U36,G37,U38,G39; 2'-F C34,C35; 3'-3' inverted T at nt 40
B5: 1076 (ssDNA)
DNA: CACAGGCTACGGCACGUAGAGCATCACCAUGATCCTGTG
modifications: 2'-OMe C1,A2,C3,C10,G11,G12,C13,A14,C15,G16,U17,A26,C27,C28,A29,U30; 3'-3' inverted T at nt 40
B6: 1295 (ssDNA)
DNA: CAGGCUACGGCACGTAGAGCAUCACCATGATCCUG
modifications: 2'-F U6,U22,C23,C32,C33; 2'-OMe C8,G9,G10,C11,A12,A24,C25,C26,A27,U34,G35; 3'-3' inverted T at nt 36
B7: 1303 (ssDNA)
DNA: CAGGCUACGGCACGTAGAGCAUCACCATGATCCUG
modifications: 2'-F U6; 2'-OMe C8,G9,G10,C11,A12,U22,C23,A24,C25,C26,A27,C32,C33,U34,G35; 3'-3' inverted T at nt 36
B8: 1369 (ssDNA)
DNA: CAGGCUACGGCACGTAGAGCAUCACCATGATCCUG
modifications: 2'-F U6,U22,C23,C32,C33; 2'-OMe C8,G9,G10,C11,A12,G17,G19,A24,C25,C26,A27,U34,G35; 3'-3' inverted T at nt 36
B9: 1328 (ssDNA)
DNA: CAGGCUACGGCACGTAGAGCAUCACCATGATCCUG
modifications: 2'-F U6,U22,C23,C32,C33; 2'-OMe C8,G9,G10,C11,A12,G19,C20,A24,C25,C26,A27,U34,G35; 3'-3' inverted T at nt 36
B10: 1305 (ssDNA)
DNA: CAGGCUACGGCACGTAGAGCAUCACCATGATCCUG
modifications: 2'-OMe C5,U6,C8,G9,G10,C11,A12,A18,U22,C23,A24,C25,C26,A27,C32,C33,U34,G35; 3'-3' inverted T at nt 36
B11: 1304 (ssDNA)
DNA: CAGGCUACGGCACGTAGAGCAUCACCATGATCCUG
modifications: 2'-OMe C5,U6,A7,C8,G9,G10,C11,A12,U22,C23,A24,C25,C26,A27,C32,C33,U34,G35; 3'-3' inverted T at nt 36
B12: 1306 (ssDNA)
DNA: CAGGCUACGGCACGTAGAGCAUCACCATGATCCUG
modifications: 2'-OMe C5,U6,C8,G9,G10,C11,A12,G19,U22,C23,A24,C25,C26,A27,C32,C33,U34,G35; 3'-3' inverted T at nt 36
B13: 1374 (ssDNA)
DNA: CAGGCUACGGCACGTAGAGCAUCACCATGATCCUG
modifications: 2'-F U6,U22,C23,C32,C33; 2'-OMe A7,C8,G9,G10,C11,A12,G17,G19,A24,C25,C26,A27,U34,G35; 3'-3' inverted T at nt 36
B14: 1327 (ssDNA)
DNA: CAGGCUACGGCACGTAGAGCAUCACCATGATCCUG
modifications: 2'-F U6,U22,C23,C32,C33; 2'-OMe C8,G9,G10,C11,A12,G19,A24,C25,C26,A27,U34,G35; 3'-3' inverted T at nt 36
B15: 1329 (ssDNA)
DNA: CAGGCUACGGCACGTAGAGCAUCACCATGATCCUG
modifications: 2'-F U6,U22,C23,C32,C33; 2'-OMe C8,G9,G10,C11,A12,G17,G19,C20,A24,C25,C26,A27,U34,G35; 3'-3' inverted T at nt 36
B16: 1297 (ssDNA)
DNA: CAGGCUCGGCACGAGAGCAUCCCAGATCCUG
modifications: 2'-F U6,U20,C21,C28,C29; 2'-OMe C7,G8,G9,C10,A11,C22,C23,A24,U30,G31; 3'-3' inverted T at nt 32
B17: 1296 (ssDNA)
DNA: CAGGCUCGGCACGAGAGCAUCACCATGATCCUG
modifications: 2'-F U6,U20,C21,C30,C31; 2'-OMe C7,G8,G9,C10,A11,A22,C23,C24,A25,U32,G33; 3'-3' inverted T at nt 34
B18: 1266 (ssDNA)
DNA: CACAGGCUACGGCACGTAGAGCAUCACCATGATCCUGUG
modifications: 2'-F U8,U24,C25,C34,C35; 2'-OMe C10,G11,G12,C13,A14,A26,C27,C28,A29,U36,G37,U38,G39; 3'-3' inverted T at nt 40

Target: T1, PDGF-BB (mature B-chain homodimer) (Homo sapiens, UniProt P01127 P01127:82-190)
Assay: inhibition; 125I-PDGF-BB binding to alpha-receptor on PAE cells, 4 C
Conditions: tags: R&D Systems, expressed in E. coli, carrier-free; chain copies: 2 B-chains (stated as BB isoform); three-way helix junction
Method: Receptor Binding Assay. The binding of ′ ²⁵I-PDGF-AA and ¹²⁵I-PDGF-BB to porcine aortic endothelial (PAE) cells transfected with PDGF α- or β-receptors were performed as described (Heldin et al., (1988) EMBO J. 7:1387-1394). Different concentrations of DNA ligands were added to the cell culture (1.5 cm²) in 0.2 ml of phosphate buffered saline supplemented with 1 mg bovine serum albumin per ml together with ¹²⁵I-PDGF-AA (2 ng, 100,000 cpm) or ¹²⁵I-PDGF-BB (2 ng, 100,000 cpm). After incubation at 4° C. for 90 min, the cell cultures were washed and cell associated radioactivity determined in a g-counter (Heldin et al., (1988) EMBO J. 7:1387-1394).

T1 sequence (P01127 82-190, one chain of several): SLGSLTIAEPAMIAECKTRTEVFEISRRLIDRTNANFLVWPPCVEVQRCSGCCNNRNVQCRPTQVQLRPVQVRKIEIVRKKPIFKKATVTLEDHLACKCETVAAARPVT

In order of falling IC50:
1. CACAGGCTACGGCACGTAGAGCATCACCATGATCCTGTGT (ssDNA, 3'-3' inverted T at nt 40) [36t]  ~1 nM
2. TACTCAGGGCACTGCAAGCAATTGTGGTCCCAATGGGCTGAGTAT (ssDNA, 3'-3' inverted T at nt 45) [41t]  ~1 nM
3. TGGGAGGGCGCGTTCTTCGTGGTTACTTTTAGTCCCGT (ssDNA, 3'-3' inverted T at nt 38) [20t]  ~1 nM

Target: T1, PDGF-BB (mature B-chain homodimer)
Assay: filter; printed as 0.159 ± 13 pM, unit evidently nM ± pM
Conditions: tags: R&D Systems, expressed in E. coli, carrier-free; chain copies: 2 B-chains (stated as BB isoform)
Method: (§1) Determination of the apparent equilibrium dissociation constants and the dissociation rate constants. The binding of ssDNA ligands at low concentrations to varying concentrations of PDGF was determined by the nitrocellulose filter binding method as described (Green et al. (1995) Chemistry and Biology 2:683-695). […] All ssDNA ligands were heated at 90° C. in binding buffer at high dilution (≈1 nM) for 2 min and cooled on ice prior to further dilution into the protein solution. The binding mixtures were typically incubated for 15 min at 37° C. before partitioning on nitrocellulose filters.

In the case of CAGGCTACGGCACGTAGAGCATCACCATGATCCTGT (ssDNA, 3'-3' inverted T at nt 36) [36ta], the Kd is reported as 0.159 nM.

Target: PDGF-AB (A-chain/B-chain heterodimer) (Homo sapiens, UniProt P04085;P01127 P04085:87-211,P01127:82-190)
Assay: filter
Conditions: tags: R&D Systems, expressed in E. coli, carrier-free
Method: as §1

Sequence of PDGF-AB (A-chain/B-chain heterodimer) (P01127 82-190, chain 2 of 2, other chains not shown): as the sequence (P01127 82-190, one chain of several) above

In order of falling binding signal:
1. CACAGGCTACGGCACGTAGAGCATCACCATGAUCCUGTG (ssDNA, 2'-OMe G31,A32,U33,C34,C35,U36; 3'-3' inverted T at nt 40) [1144]  994 Kd ligand/Kd 36t
2. B11  607 Kd ligand/Kd 36t
3. B5  440 Kd ligand/Kd 36t
4. CACAGGCUACGGCACGTAGAGCATCACCATGATCCTGTG (ssDNA, 2'-OMe A4,G5,G6,C7,U8,A9; 3'-3' inverted T at nt 40) [1148]  281 Kd ligand/Kd 36t
5. B10  196 Kd ligand/Kd 36t
6. CACAGGCTACGGCACGTAGAGCATCACCATGATCCTGTGT (ssDNA, 2'-OMe A20,G21,C22; 3'-3' inverted T at nt 40) [EV1]  35.1 Kd ligand/Kd 36t
7. CACAGGCTACGGCACGUAGAGCAUCACCATGATCCTGTG (ssDNA, 2'-OMe U17,A23,U24; 3'-3' inverted T at nt 40) [1142]  12.9 Kd ligand/Kd 36t
8. CACAGGCTACGGCACGTAGAGCATCACCAUGATCCTGTG (ssDNA, 2'-OMe A26,C27,C28,A29,U30; 3'-3' inverted T at nt 40) [1075]  10 Kd ligand/Kd 36t
9. B7  5.8 Kd ligand/Kd 36t
10. CACAGGCTACGGCACGUAGAGCATCACCATGATCCTGTG (ssDNA, 2'-OMe G12,C13,A14,C15,G16,U17; 3'-3' inverted T at nt 40) [EV2]  5.3 Kd ligand/Kd 36t
11. CACAGGCTACGGCACGTAGAGCATCACCATGATCCTGTGT (ssDNA, 2'-OMe C1,A2,C3,A4; 3'-3' inverted T at nt 40) [EV4]  4.5 Kd ligand/Kd 36t
12. B12  4.4 Kd ligand/Kd 36t
13. B4  4.2 Kd ligand/Kd 36t
14. CACAGGCTACGGCACGUAGAGCATCACCATGATCCTGTG (ssDNA, 2'-OMe C10,G11,G12,C13,A14,C15,G16,U17; 3'-3' inverted T at nt 40) [1074]  3.1 Kd ligand/Kd 36t
15. B16  2.9 Kd ligand/Kd 36t
16. CACAGGCTACGGCACGTAGAGCATCACCATGATCCTGTGT (ssDNA, 2'-OMe G19,A20,G21,C22; 3'-3' inverted T at nt 40) [1149]  2.9 Kd ligand/Kd 36t
17. CACAGGCTACGGCACGTAGAGCATCACCATGATCCTGTG (ssDNA, 2'-F U33; 3'-3' inverted T at nt 40) [1158]  2.4 Kd ligand/Kd 36t
18. CACAGGCTACGGCACGTAGAGCATCACCATGATCCUGUG (ssDNA, 2'-OMe U36,G37,U38,G39; 3'-3' inverted T at nt 40) [EV5]  2.3 Kd ligand/Kd 36t
19. B9  2.2 Kd ligand/Kd 36t
20. B17  2.1 Kd ligand/Kd 36t
21. B13  1.5 Kd ligand/Kd 36t
22. CACAGGCTACGGCACGTAGAGCATCACCATGATCCTGTGT (ssDNA, 2'-OMe C10,G11,G12,C13,A14; 3'-3' inverted T at nt 40) [EV3]  1.5 Kd ligand/Kd 36t
23. B2  1.4 Kd ligand/Kd 36t
24. CACAGGCTACGGCACGTAGAGCATCACCATGATCCTGTGT (ssDNA, 2'-F C22; 3'-3' inverted T at nt 40) [1160]  1.4 Kd ligand/Kd 36t
25. B3  1.3 Kd ligand/Kd 36t
26. CACAGGCTACGGCACGTAGAGCATCACCATGATCCTGTG (ssDNA, 2'-F U30; 3'-3' inverted T at nt 40) [1163]  1.3 Kd ligand/Kd 36t
27. CACAGGCTACGGCACGTAGAGCATCACCATGATCCTGTGT (ssDNA, 2'-F C7; 3'-3' inverted T at nt 40) [1157]  1 Kd ligand/Kd 36t
28. B18  1 Kd ligand/Kd 36t
29. B6  0.9 Kd ligand/Kd 36t
30. B1  0.87 Kd ligand/Kd 36t
31. CACAGGCTACGGCACGTAGAGCATCACCATGATCCTGTG (ssDNA, 2'-F U17; 3'-3' inverted T at nt 40) [1166]  0.76 Kd ligand/Kd 36t
32. B15  0.72 Kd ligand/Kd 36t
33. B14  0.63 Kd ligand/Kd 36t
34. CACAGGCTACGGCACGTAGAGCATCACCATGATCCTGTGT (ssDNA, 2'-F C35; 3'-3' inverted T at nt 40) [1165]  0.61 Kd ligand/Kd 36t
35. CACAGGCTACGGCACGTAGAGCATCACCATGATCCTGTGT (ssDNA, 2'-F C34; 3'-3' inverted T at nt 40) [1162]  0.52 Kd ligand/Kd 36t
36. CACAGGCTACGGCACGTAGAGCATCACCATGATCCTGTG (ssDNA, 2'-F U8; 3'-3' inverted T at nt 40) [1164]  0.45 Kd ligand/Kd 36t
37. CACAGGCTACGGCACGTAGAGCATCACCATGATCCTGTG (ssDNA, 2'-F U24; 3'-3' inverted T at nt 40) [1159]  0.37 Kd ligand/Kd 36t
38. B8  0.37 Kd ligand/Kd 36t
39. CACAGGCTACGGCACGTAGAGCATCACCATGATCCTGTGT (ssDNA, 2'-OMe C25,A26,C27,C28,A29; 3'-3' inverted T at nt 40) [1145]  0.27 Kd ligand/Kd 36t
40. CACAGGCTACGGCACGTAGAGCATCACCATGATCCTGTGT (ssDNA, 2'-F C25; 3'-3' inverted T at nt 40) [1161]  0.22 Kd ligand/Kd 36t
